Our source for the protein stability index values is the supplement of paper PMC10567573.

To fix the notation:
B1: USP39 (parent)
chain: TLSEAYIQIWKRRDNDETNQQGA
B2: EDARADD (parent)
chain: VEKVLRRWVDEEWPKRERGDPSRH
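Further: lentivirally expressed fusions sorted by FACS into six bins by GFP to DsRed ratio, PSI derived from sequencing read proportions per bin multiplied by bin number.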

One data set covers variants of B1. The data set can be described thus: protein stability index of a GFP-peptide fusion (GPS, HEK-293T) (PSI 1-6); higher = more stable. Conditions: c terminus: native.
On to NLSEAYIQIWKRRDNDETNQQGA [T1N], for which the protein stability index came to 2.99. As to ILSEAYIQIWKRRDNDETNQQGA [T1I], the protein stability index worked out at 2.31.

With MLSEAYIQIWKRRDNDETNQQGA [T1M], the protein stability index was found to be 2.66. Same read-out and setting: the value for PLSEAYIQIWKRRDNDETNQQGA [T1P] was 2.54.

For SLSEAYIQIWKRRDNDETNQQGA [T1S], the protein stability index was 2.54. In the case of FLSEAYIQIWKRRDNDETNQQGA [T1F], the protein stability index is 2.16.

For QLSEAYIQIWKRRDNDETNQQGA [T1Q], the protein stability index worked out at 2.32.

For HLSEAYIQIWKRRDNDETNQQGA [T1H], the protein stability index stood at 1.99.

In the case of VLSEAYIQIWKRRDNDETNQQGA [T1V], the protein stability index came out at 2.07. The same measure, in the same setting: next, KLSEAYIQIWKRRDNDETNQQGA [T1K]: 2.36; ALSEAYIQIWKRRDNDETNQQGA [T1A]: 2.37. The same measure, in the same setting: the value for GLSEAYIQIWKRRDNDETNQQGA [T1G] was 3.34. On the same count and under the same terms, the value for RLSEAYIQIWKRRDNDETNQQGA [T1R] was 2.79; that for ELSEAYIQIWKRRDNDETNQQGA [T1E] was 2.59.

As for TGSEAYIQIWKRRDNDETNQQGA [L2G], the protein stability index amounted to 3.77.

With TRSEAYIQIWKRRDNDETNQQGA [L2R], the protein stability index came out at 2.85.

On to THSEAYIQIWKRRDNDETNQQGA [L2H], for which the protein stability index came out at 3.1. Same read-out and setting: the value for TSSEAYIQIWKRRDNDETNQQGA [L2S] was 3.08. As for TTSEAYIQIWKRRDNDETNQQGA [L2T], the protein stability index turned out to be 2.72. The same measure, in the same setting: the value for TQSEAYIQIWKRRDNDETNQQGA [L2Q] was 3.35; that for TDSEAYIQIWKRRDNDETNQQGA [L2D] was 3.46; that for TASEAYIQIWKRRDNDETNQQGA [L2A] was 2.8. Same read-out and setting: next, TVSEAYIQIWKRRDNDETNQQGA [L2V]: 2.73. Consider TPSEAYIQIWKRRDNDETNQQGA [L2P], for which the protein stability index is 2.6. Take TCSEAYIQIWKRRDNDETNQQGA [L2C]: the protein stability index worked out at 2.32. Consider TISEAYIQIWKRRDNDETNQQGA [L2I], for which the protein stability index worked out at 2.77. Still for that read-out and setting: the value for TNSEAYIQIWKRRDNDETNQQGA [L2N] was 3.33. Take TMSEAYIQIWKRRDNDETNQQGA [L2M]: the protein stability index worked out at 2.98. The same measure, in the same setting: the value for TWSEAYIQIWKRRDNDETNQQGA [L2W] was 2.63; that for TESEAYIQIWKRRDNDETNQQGA [L2E] was 3.08; that for TYSEAYIQIWKRRDNDETNQQGA [L2Y] was 2.12. The same measure, in the same setting: the value for TKSEAYIQIWKRRDNDETNQQGA [L2K] was 2.74; that for TFSEAYIQIWKRRDNDETNQQGA [L2F] was 2.51.

Consider TLYEAYIQIWKRRDNDETNQQGA [S3Y], for which the protein stability index was determined as 1.98. The same measure, in the same setting: the value for TLNEAYIQIWKRRDNDETNQQGA [S3N] was 2.2; that for TLEEAYIQIWKRRDNDETNQQGA [S3E] was 2.95; that for TLQEAYIQIWKRRDNDETNQQGA [S3Q] was 2.38. Take TLCEAYIQIWKRRDNDETNQQGA [S3C]: the protein stability index was found to be 2.38.

As to TLVEAYIQIWKRRDNDETNQQGA [S3V], the protein stability index came out at 1.11. The same measure, in the same setting: next, TLIEAYIQIWKRRDNDETNQQGA [S3I]: 2.3; TLAEAYIQIWKRRDNDETNQQGA [S3A]: 3.23; TLLEAYIQIWKRRDNDETNQQGA [S3L]: 3.01.

Turning to TLREAYIQIWKRRDNDETNQQGA [S3R], the protein stability index worked out at 2.78. Take TLFEAYIQIWKRRDNDETNQQGA [S3F]: the protein stability index came to 2.14. Same read-out and setting: next, TLGEAYIQIWKRRDNDETNQQGA [S3G]: 2.32; TLDEAYIQIWKRRDNDETNQQGA [S3D]: 3.55. Same read-out and setting: next, TLWEAYIQIWKRRDNDETNQQGA [S3W]: 2.32; TLMEAYIQIWKRRDNDETNQQGA [S3M]: 2.01. For the variant TLTEAYIQIWKRRDNDETNQQGA [S3T], the protein stability index came to 2.65. Take TLKEAYIQIWKRRDNDETNQQGA [S3K]: the protein stability index is 2.68.

As for TLHEAYIQIWKRRDNDETNQQGA [S3H], the protein stability index amounted to 2.5. The same measure, in the same setting: the value for TLPEAYIQIWKRRDNDETNQQGA [S3P] was 3.01; that for TLSEPYIQIWKRRDNDETNQQGA [A5P] was 3.69; that for TLSECYIQIWKRRDNDETNQQGA [A5C] was 3.14. Same read-out and setting: next, TLSEKYIQIWKRRDNDETNQQGA [A5K]: 2.2. Same read-out and setting: next, TLSEIYIQIWKRRDNDETNQQGA [A5I]: 2.02; TLSEQYIQIWKRRDNDETNQQGA [A5Q]: 2.69. As to TLSEMYIQIWKRRDNDETNQQGA [A5M], the protein stability index came out at 2.19.

For TLSENYIQIWKRRDNDETNQQGA [A5N], the protein stability index came out at 2.6. The same measure, in the same setting: next, TLSEYYIQIWKRRDNDETNQQGA [A5Y]: 2.57; TLSEHYIQIWKRRDNDETNQQGA [A5H]: 2.39.

Turning to TLSEWYIQIWKRRDNDETNQQGA [A5W], the protein stability index is 2.18. As to TLSERYIQIWKRRDNDETNQQGA [A5R], the protein stability index came to 3.47. For the variant TLSEGYIQIWKRRDNDETNQQGA [A5G], the protein stability index stood at 2.86. With TLSEDYIQIWKRRDNDETNQQGA [A5D], the protein stability index was 3.45.

As to TLSEVYIQIWKRRDNDETNQQGA [A5V], the protein stability index amounted to 2.93. The same measure, in the same setting: next, TLSEEYIQIWKRRDNDETNQQGA [A5E]: 2.75; TLSESYIQIWKRRDNDETNQQGA [A5S]: 2.31. For TLSETYIQIWKRRDNDETNQQGA [A5T], the protein stability index is 2.38. Still for that read-out and setting: next, TLSELYIQIWKRRDNDETNQQGA [A5L]: 2.29; TLSEFYIQIWKRRDNDETNQQGA [A5F]: 1.78; TLSEAYIYIWKRRDNDETNQQGA [Q8Y]: 2.07. On the same count and under the same terms, the value for TLSEAYIVIWKRRDNDETNQQGA [Q8V] was 1.78; that for TLSEAYINIWKRRDNDETNQQGA [Q8N] was 2.63; that for TLSEAYIHIWKRRDNDETNQQGA [Q8H] was 2.24. Regarding TLSEAYIAIWKRRDNDETNQQGA [Q8A], the protein stability index worked out at 2.92. In the case of TLSEAYIMIWKRRDNDETNQQGA [Q8M], the protein stability index was determined as 1.59. Consider TLSEAYITIWKRRDNDETNQQGA [Q8T], for which the protein stability index turned out to be 1.98. On to TLSEAYISIWKRRDNDETNQQGA [Q8S], for which the protein stability index worked out at 2.48. With TLSEAYIEIWKRRDNDETNQQGA [Q8E], the protein stability index was found to be 3. On the same count and under the same terms, next, TLSEAYIIIWKRRDNDETNQQGA [Q8I]: 1.5; TLSEAYIFIWKRRDNDETNQQGA [Q8F]: 2.

For TLSEAYILIWKRRDNDETNQQGA [Q8L], the protein stability index was 1.42.

As to TLSEAYIDIWKRRDNDETNQQGA [Q8D], the protein stability index is 2.48. Same read-out and setting: next, TLSEAYIRIWKRRDNDETNQQGA [Q8R]: 3.93. The same measure, in the same setting: next, TLSEAYICIWKRRDNDETNQQGA [Q8C]: 1.95; TLSEAYIGIWKRRDNDETNQQGA [Q8G]: 2.22; TLSEAYIKIWKRRDNDETNQQGA [Q8K]: 3.05. The same measure, in the same setting: the value for TLSEAYIPIWKRRDNDETNQQGA [Q8P] was 1.9.

In the next data set the parent is B2. Described as above. Conditions: c terminus: a fixed tail appended.
With VEKVLRRWVDEEWPDRERGDPSRH [K15D], the protein stability index was 3.17. On the same count and under the same terms, the value for SEKVLRRWVDEEWPKRERGDPSRH [V1S] was 2.39; that for VEKVLRRWVDEEWPKRERGDNSRH [P21N] was 3.21; that for VEKVLRRWVDEEWPKREHGDPSRH [R18H] was 3.18. Take VEKVLRRWVDEEWPKRERGDPSRV [H24V]: the protein stability index is 2.93. In the case of VEKVLRRWVDEEWPKRERGDPSRS [H24S], the protein stability index was 2.81. With VEKVLRRWVDFEWPKRERGDPSRH [E11F], the protein stability index was 2.16. As to VEKVLRRWVDEEWNKRERGDPSRH [P14N], the protein stability index amounted to 2.8.
